This passage reports Kd, koff and kon results from patent publication US20230272055A1 (Incyte, published 2023).

Sequences and labels used below:
B1: anti-mutCALR antibody clone 61 (antibody, human IgG1, lambda, N297A, V domains shown)
VH: EVQLVQSGAEVKKPGASVKVSCKVSGYTLTELSMQWVRQAPGKGLEWMGGFDPDAGETMYAEKFQGRLTVTEDTSTDTVYMELSSLRSEDTAVYFCATSPGYDFFDYWGQGTLVTVSS
VL: QSALTQPASVSGSPGQSITISCTGTSSDVGGYNYVSWYQQHPGKAPKLMIYEVSNRPSGVSNRFSGSNSGNTATLTINRVEAGDEADYYCQVWDSSNDLLIFGGGTKLTVLG
notes: human IgG1 N297A variant of clone 6
B2: anti-mutCALR antibody clone 70 (antibody, human IgG1, lambda, N297A, V domains shown)
VH: EVQLVQSGAEVKKPGASVKVSCKVSGYTLTELSMQWVRQAPGKGLEWMGGFDPDDGETMYAEKFQGRLTVTEDTSTDTVYMELSSLRSEDTAVYFCATSPGYDFFDYWGQGTLVTVSS
VL: SYVLTQPPSVSVAPGKTARITCTGTSSDVGGYNYVSWYQQKPGQAPVLVVYEVSNRPSGIPERFSGSNSGNTATLTISRVEAGDEADYYCQVWDSSNDLLIFGGGTKLTVLG
notes: as for B1
B3: anti-mutCALR antibody clone 179 (antibody, human IgG1, lambda, N297A, V domains shown)
VH: EVQLVQSGAEVKKPGASVKVSCKVSGYTLTELSMQWVRQAPGKGLEWMGGFDPDDAETMYAEKFQGRLTVTEDTSTDTVYMELSSLRSEDTAVYFCATSPGYDFFDYWGQGTLVTVSS
VL: SYVLTQPPSVSVAPGQTARITCGGSDIGDEIVHWYQQKPGQAPVLVVYDDSDRPSGIPERFSGSNSGNTATLTISRAQAGDEADYYCQVWDSSSDHLIFGGGTKLTVLG
notes: human IgG1 N297A variant of clone 17
B4: anti-mutCALR antibody clone 72 (antibody, human IgG1, lambda, N297A, V domains shown)
VH: EVQLVQSGAEVKKPGASVKVSCKVSGYTLTELSMQWVRQAPGKGLEWMGGFDPDSGETMYAEKFQGRLTVTEDTSTDTVYMELSSLRSEDTAVYFCATSPGYDFFDYWGQGTLVTVSS
VL: SYVLTQPPSVSVAPGKTARITCTGTSSDVGGYNYVSWYQQKPGQAPVLVVYEVSNRPSGIPERFSGSNSGNTATLTISRVEAGDEADYYCQVWDSSNDLLIFGGGTKLTVLG
notes: as for B1
B5: anti-mutCALR antibody clone 73 (antibody, human IgG1, lambda, N297A, V domains shown)
VH: EVQLVQSGAEVKKPGASVKVSCKVSGYTLTELSMQWVRQAPGKGLEWMGGFDPDEGETMYAEKFQGRLTVTEDTSTDTVYMELSSLRSEDTAVYFCATSPGYDFFDYWGQGTLVTVSS
VL: SYVLTQPPSVSVAPGKTARITCTGTSSDVGGYNYVSWYQQKPGQAPVLVVYEVSNRPSGIPERFSGSNSGNTATLTISRVEAGDEADYYCQVWDSSNDLLIFGGGTKLTVLG
notes: as for B1
B6: anti-mutCALR antibody clone 66 (antibody, human IgG1, lambda, N297A, V domains shown)
VH: EVQLVQSGAEVKKPGASVKVSCKVSGYTLTELSMQWVRQAPGKGLEWMGGFDPDAGETMYAEKFQGRLTVTEDTSTDTVYMELRSLTSEDTALYFCATSPGYDFFDYWGQGTLVTVSS
VL: SYVLTQPPSVSVAPGKTARITCTGTSSDVGGYNYVSWYQQKPGQAPVLVVYEVSNRPSGIPERFSGSNSGNTATLTISRVEAGDEADYYCQVWDSSNDLLIFGGGTKLTVLG
notes: as for B1
B7: anti-mutCALR antibody clone 68 (antibody, human IgG1, lambda, N297A, V domains shown)
VH: EVQLVQSGAEVKKPGASVKVSCKVSGYTLTELSMQWVRQAPGKGLEWMGGFDPDEGETMYAEKFQGRLTVTEDTSTDTVYMELRSLTSEDTALYFCATSPGYDFFDYWGQGTLVTVSS
VL: SYVLTQPPSVSVAPGKTARITCTGTSSDVGGYNYVSWYQQKPGQAPVLVVYEVSNRPSGIPERFSGSNSGNTATLTISRVEAGDEADYYCQVWDSSNDLLIFGGGTKLTVLG
notes: as for B1
B8: anti-mutCALR antibody clone 64 (antibody, human IgG1, lambda, N297A, V domains shown)
VH: EVQLVQSGAEVKKPGASVKVSCKVSGYTLTELSMQWVRQAPGKGLEWMGGFDPDDAETMYAEKFQGRLTVTEDTSTDTVYMELSSLRSEDTAVYFCATSPGYDFFDYWGQGTLVTVSS
VL: QSALTQPASVSGSPGQSITISCTGTSSDVGGYNYVSWYQQHPGKAPKLMIYEVSNRPSGVSNRFSGSNSGNTATLTINRVEAGDEADYYCQVWDSSNDLLIFGGGTKLTVLG
notes: as for B1
B9: anti-mutCALR antibody clone 67 (antibody, human IgG1, lambda, N297A, V domains shown)
VH: EVQLVQSGAEVKKPGASVKVSCKVSGYTLTELSMQWVRQAPGKGLEWMGGFDPDSGETMYAEKFQGRLTVTEDTSTDTVYMELRSLTSEDTALYFCATSPGYDFFDYWGQGTLVTVSS
VL: SYVLTQPPSVSVAPGKTARITCTGTSSDVGGYNYVSWYQQKPGQAPVLVVYEVSNRPSGIPERFSGSNSGNTATLTISRVEAGDEADYYCQVWDSSNDLLIFGGGTKLTVLG
notes: as for B1
B10: anti-mutCALR antibody clone 63 (antibody, human IgG1, lambda, N297A, V domains shown)
VH: EVQLVQSGAEVKKPGASVKVSCKVSGYTLTELSMQWVRQAPGKGLEWMGGFDPDEGETMYAEKFQGRLTVTEDTSTDTVYMELSSLRSEDTAVYFCATSPGYDFFDYWGQGTLVTVSS
VL: QSALTQPASVSGSPGQSITISCTGTSSDVGGYNYVSWYQQHPGKAPKLMIYEVSNRPSGVSNRFSGSNSGNTATLTINRVEAGDEADYYCQVWDSSNDLLIFGGGTKLTVLG
notes: as for B1
B11: anti-mutCALR antibody clone 62 (antibody, human IgG1, lambda, N297A, V domains shown)
VH: EVQLVQSGAEVKKPGASVKVSCKVSGYTLTELSMQWVRQAPGKGLEWMGGFDPDSGETMYAEKFQGRLTVTEDTSTDTVYMELSSLRSEDTAVYFCATSPGYDFFDYWGQGTLVTVSS
VL: QSALTQPASVSGSPGQSITISCTGTSSDVGGYNYVSWYQQHPGKAPKLMIYEVSNRPSGVSNRFSGSNSGNTATLTINRVEAGDEADYYCQVWDSSNDLLIFGGGTKLTVLG
notes: as for B1
B12: anti-mutCALR antibody clone 69 (antibody, human IgG1, lambda, N297A, V domains shown)
VH: EVQLVQSGAEVKKPGASVKVSCKVSGYTLTELSMQWVRQAPGKGLEWMGGFDPDDAETMYAEKFQGRLTVTEDTSTDTVYMELRSLTSEDTALYFCATSPGYDFFDYWGQGTLVTVSS
VL: SYVLTQPPSVSVAPGKTARITCTGTSSDVGGYNYVSWYQQKPGQAPVLVVYEVSNRPSGIPERFSGSNSGNTATLTISRVEAGDEADYYCQVWDSSNDLLIFGGGTKLTVLG
notes: as for B1
B13: anti-mutCALR antibody clone 71 (antibody, human IgG1, lambda, N297A, V domains shown)
VH: EVQLVQSGAEVKKPGASVKVSCKVSGYTLTELSMQWVRQAPGKGLEWMGGFDPDAGETMYAEKFQGRLTVTEDTSTDTVYMELSSLRSEDTAVYFCATSPGYDFFDYWGQGTLVTVSS
VL: SYVLTQPPSVSVAPGKTARITCTGTSSDVGGYNYVSWYQQKPGQAPVLVVYEVSNRPSGIPERFSGSNSGNTATLTISRVEAGDEADYYCQVWDSSNDLLIFGGGTKLTVLG
notes: as for B1

For the assay, the target named is T1, Recombinant MBP-mutCALR Type 1 fusion protein (human).
T1 construct: custom made at Cepter; also called recombinant mutCALR protein
The assay can be described thus: SPR, IgG captured, 1:1 fit, Exp. 2. The procedure: Experiment 2: Recombinant MBP-mutCALR Type 1 fusion protein was custom made at Cepter (cepterbiopartners.com). Data for the interaction of antibodies with recombinant mutCALR protein were collected at 25° C. on a Biacore 8K instrument (Cytiva, Marlborough, Mass.), and all reagents were obtained from Cytiva unless otherwise specified. The experiments were conducted using Tris-buffered saline (pH 7.2), 0.005% Surfactant P20, 1 mM CaCl₂) as running buffer. To prepare the capture surfaces, anti-human IgG (Fc) antibodies (Product #29234600) was amine-coupled onto a CM4 chip (Product #BR100534) under standard conditions using an Amine Coupling Kit (Product #BR100050). […] The kinetics parameters were obtained by applying 1:1 binding model to fit the data from multiple-cycle injection experiments using Biacore Insight Evaluation software.
(In SPR one partner is held on a chip, and binding of the other changes the refractive index at the surface.)
Regarding B1, the dissociation constant (Kd) was 0.893 nM, the off-rate (koff) is 0.00369 s⁻¹ and the kon was determined as 4.13e+06 M⁻¹ s⁻¹.
On to B2, for which the dissociation constant (Kd) amounted to 0.966 nM, the koff was 0.000953 s⁻¹ and the association rate constant (kon) was determined as 987000 M⁻¹ s⁻¹.
As to B3, the dissociation constant Kd stood at 0.455 nM, the koff amounted to 0.00681 s⁻¹ and the association rate constant (kon) was 1e+07 M⁻¹ s⁻¹.
For B4, in that order: 3.74 nM, 0.00382 s⁻¹ and 1.02e+06 M⁻¹ s⁻¹.
Regarding B5, the Kd was found to be 0.76 nM, the off-rate (koff) amounted to 0.00546 s⁻¹ and the on-rate constant (kon) is 7.18e+06 M⁻¹ s⁻¹.
As for B6, the dissociation constant Kd is 2.36 nM, the off-rate constant (koff) was found to be 0.00836 s⁻¹ and the kon was determined as 3.54e+06 M⁻¹ s⁻¹.
For the molecule B7, the Kd turned out to be 1.15 nM, the koff is 0.00166 s⁻¹ and the kon was 1.44e+06 M⁻¹ s⁻¹.
In the case of B8, the Kd is 0.638 nM, the dissociation rate constant (koff) is 0.00248 s⁻¹ and the on-rate (kon) was 3.89e+06 M⁻¹ s⁻¹.
As for B9, the dissociation constant (Kd) is 3.34 nM, the koff came out at 0.0102 s⁻¹ and the association rate constant (kon) stood at 3.05e+06 M⁻¹ s⁻¹.
For the molecule B10, the dissociation constant (Kd) was found to be 0.244 nM, the off-rate (koff) came out at 0.000691 s⁻¹ and the kon was found to be 2.83e+06 M⁻¹ s⁻¹.
As to B11, the equilibrium dissociation constant (Kd) is 1.76 nM, the koff came to 0.00621 s⁻¹ and the kon was 3.52e+06 M⁻¹ s⁻¹.
With B12, the Kd was 0.53 nM, the koff was 0.00527 s⁻¹ and the kon is 9.94e+06 M⁻¹ s⁻¹.
Turning to B13, the dissociation constant (Kd) was determined as 2.31 nM, the koff came to 0.0107 s⁻¹ and the on-rate constant (kon) amounted to 4.63e+06 M⁻¹ s⁻¹.

In general, Kd refers to the free concentration of one partner at which half of the binding sites on the other are occupied at equilibrium, for simple one-to-one binding. As usually defined, the koff is the rate constant with which the complex falls apart. What is called kon is the rate constant with which the complex forms.
